Measured values as given in patent publication US20210315969A1, “GLYCOPROTEINS HAVING LIPID MOBILIZING PROPERTIES AND THERAPEUTIC USES THEREOF” (Aston University, priority 2008, published 2021).
Marks after values point to notes of the source that are not given here.

Assays:
[1] = tested on: proteasome 'chymotrypsin-like' activity, caspase-3 and caspase-8; experiment: Proteasome 'chymotrypsin-like' and caspase activity in gastrocnemius muscle; type: in vivo; settings: ob/ob mice treated 5 days
Description: Gastrocnemius muscle was homogenised in 20 mM Tris, pH7.5, 2 mM ATP, 5 mM MgCl2 and 50 mM DTT at 4° C., sonicated and centrifuged at 18,000 g for 10 min at 4° C. to pellet insoluble material, and the resulting supernatant was used to measure ‘chymotrypsin-like’ enzyme activity in the presence or absence of the proteasome inhibitor lactacystin (10 μM). Only lactacystin suppressible activity was considered as true proteasome activity. The activity of caspase-3 was determined by the release of AMC from AcAsp.Gly.Val.Asp.AMC (SEQ ID NO: 3), and the activity of caspase-8 was determined by the release of 7-amino-4-trifluromethylcoumarin (AFC) from the specific substrate Z-Ile Glu Phe Thr Asp-AFC (SEQ ID NO: 4), using the supernatant from above (50 ug protein), and either the caspase-3 or −8 substrate (10 μM) for ih 37° C. in the presence or absence of the caspase-3 (AcAsp Glu Val Asp-CHO) (SEQ ID NO: 5) or caspase-8 (Ile Glu Phe Thr Asp-CHO) (SEQ ID NO: 6) inhibitors (100 μM). The increase in fluorescence due to […], while the increase in fluorescence due to AFC was measured with an excitation wavelength of 400 nm and an emission wavelength of 505 nm. The difference in values in the absence and presence of the caspase inhibitors was a measure of activity.

[2] = tested on: murine myotubes; experiment: Protein degradation and synthesis in myotubes subjected to high glucose; type: cell-based
Description: FIGS. 18A and 18B is a graphical diagram showing phenylalanine release (FIG. 18A) and protein synthesis (FIG. 18B) in C2Cl2 myotubes treated with and without ZAG for 4 h in the presence of various concentrations of glucose. Statistically significant c, P<0.001 from control; f, P<0.001 from glucose alone.
Statistically significant b, P<0.01 and c, P<0.001 from control; e, P<0.05 and f, P<0.001 from glucose alone.
Statistically significant b, P<0.01 and c, P<0.001 from control; e, P<0.05 and f, P<:0.001 from glucose alone; I, P<0.001 from glucose+SR.
This utilizes murine myotubes subjected. to high concentrations of glucose (10 or 25 mM).

[3] = tested on: protein expression in adipocytes, BAT and gastrocnemius muscle; experiment: Western blot analysis of tissues of ob/ob mice treated with ZAG; type: in vivo
Description: Western Blot Analysis—Freshly excised gastrocnemius muscles were washed in PBS and lysed PHOSPHOSAFE™ Extraction Reagent for 5 min at room temperature followed by sonication at 4° C. The lysate was cleared by centrifugation at 18,000 g for 5 min at 4° C. and samples of cytosolic protein (5 μg) were resolved on 12% sodium dodecyl suflate-polyacrylamide gel electrophoresis at 180V for approximately 1 h. This was followed by transference to 0.45 μm nitrocellulose membranes, which were then blocked with 5% Marvel in Tris-buffered saline, pH 7.5, at 4° C. overnight. Both primary and secondary antibodies were used at a dilution of 1:1000 except anti-myosin (1:250). Incubation was for lh at room temperature, and development was by FCL. Blots were scanned by a densitometer to quantify differences.

[4] = Insulin tolerance test in ob/ob mice administered ZAG for 3 days; type: in vivo
Description: An insulin tolerance test was also carried out in ob/ob mice administered. ZAG for 3 days (FIG. 23). Animals were administered two doses of insulin (10 and 20 U/kg) by i.p. injection and blood glucose was measured over the next 60 min. […] The glucose disappearance curve for 20 U/kg +PBS was almost identical to 10 U/kg +ZAG, so at this dose level ZAG is reducing the requirement for insulin by 50%, but this can be overcome by giving more insulin.

[5] = Daily i.v. ZAG in mature male Wistar rats for 10 days (body weight, composition, plasma metabolites); type: in vivo
Description: Animals Rais Mature male Wistar rats (one year old from our own colony) weighing 540 ±82.5 g were housed individually and treated once daily i. v., with either ZAG in PBS (100 μl) (50 μg per 100 g body weight), or with PBS (100 μl) as a control. Both food and water intake and body weight were measured daily. Animals were given free access to food (Special Diet Services, Essex, UK) and water ad libitum. The animal experiment was carried out under the welfare conditions imposed by the British Home Office. After 10 days treatment the animals were terminated and the body composition determined. Animals were heated to 80-90° C. for 7 days until constant weight was achieved. The water content was then determined from the difference between the wet and dry weight. Lipids were extracted from the dry carcass using a sequence of chloroform:methanol (1:1), ethanolla.cetone (1:1) and diethyl ether (120 ml of each) as described by Lundholm et al (14). The solvents were evaporated and the fat weighed. The non-fat carcass mass was calculated as the difference between the initial weight of the carcass and the weight of water and fat.
Serum Metabolite Determinations—Non-esterified fatty acids (NEFA) were determined using a Wako-ASC-ACOD kit (Wako Chemical GmbH, Neuss, Germany). Triglycerides were determined using a Triglyceride kit (Sigma Chemical Co., Poole, United Kingdom) and 3-hydroxybutyrate by a quantitative enzymatic determination kit (Sigma). Glucose was measured using a glucose analyser (Beckman, Irvine, Calif.) and glycerol was determined enzymatically using the method of Wieland as described in “Methods of Enzymatic Analysis” (Ed, Bergmeyer, H. U.) Vol. 3, pp1404-1409, published by Academic Press, London (1974).

[6] = Interval administration / pilot scheduling study of ZAG in ob/ob mice; type: in vivo
Description: While not wanting to be limited by theory, it may be that the subjects are receiving too much ZAG or that there is receptor desensitization as is seen with TNF. A pilot study was performed with 2 mice in each group to determine optimal scheduling of ZAG delivery.

B1: Zinc-α2-glycoprotein (protein, listed as Homo sapiens)
chain: QENQDGRYSLTYIYTGLSKHVEDVPAFQALGSLNDLQFFRYNSKDRKSQPMGLWRQVEGMEDWKEDSQLQKAREDMETLKDIVEYYNDSNGSHVLQGRFGCEIENNRSSGAFWKYYYDGKDYIEFNKEIPAWVPFDPAAQITKQKWEAEPVYVQRAKAYLEEECPATLRKYLKYSKNILDRQDPPSVVVTSHQAPGEKKKLKCLAYDFYPGKIDVHWTRAGQVQEPELRGDVLHNGNGTYQSWVVVAVPPQDTAPYSCHVQHSSLAQPLVVPWEAS
notes: recombinant human Zinc-α2-glycoprotein, lipid mobilizing factor, expressed in HEK293F cells
caspases-3 and -8 [1]: attenuated | high glucose induced increase in protein degradation and depression of protein synthesis ([2]; ZAG 2.5 μg/ml, glucose 10 or 25 mM): completely attenuated | protein degradation induced by 10 and 25 mM glucose ([2]; myotubes): attenuated | expression of HSL in epididymal adipocytes ([3]; 5 days ZAG): increased expression of HSL | expression of HSL in subcutaneous or visceral adipocytes ([3]; 5 days ZAG): no increase | expression of UCP1 and UCP3 in BAT and UCP3 in skeletal muscle ([3]; 5 days ZAG): increased the expression | expression of pERK ([3]; 5 days ZAG, ep, sc, vis adipose tissue): increase in expression of pERK only in ep adipose tissue | phospholipase A2 (PLA2) and p38 mitogen activated protein kinase ([3]; gastrocnemius muscle): attenuated | time ZAG expression was maintained in cultured ep adipocytes ([3]; no ZAG added to culture medium): 3 days | expression of HSL and ATGL in epididymal adipose tissue ([3]; ob/ob mice): increases the expression | actin levels ([3]; skeletal muscle): did not change | insulin tolerance test, blood glucose response ([4]; insulin 10 U/kg i.p., vs PBS): increased sensitivity to insulin | insulin tolerance test, difference ZAG versus PBS ([4]; insulin 20 U/kg i.p.): difference disappeared | Starting weight ([5]; male rats, before treatment): 530 ± 45 g | Triglycerides (plasma) ([5]; rats treated for 10 days): 1.1 ± 0.09^a mmol/l | decrease in plasma levels of non-esterified fatty acids (NEFA) ([5]; rats, 10 days): 55% | elevation in body temperature ([5]; rats, significant within 24 h of first administration): 0.4 °C | weight loss on long-term daily administration [6]: cessation of weight loss | weight loss with break of 3-4 days followed by re-infusion [6]: continued weight loss
